In patent US20180194862A1 (AbbVie / Abbott, published 2018):
Read-outs that look alike come from different tables or passages of the source. Each block holds one binder with its values, some of them ahead of it.

Tests used:
[1] = biological target: T1, mouse CD40 (mouse, UniProt P27512 20-193, limits assumed); assay: CD40 binding, format not stated
T1 construct: also called murine CD40
T1 sequence (looked up): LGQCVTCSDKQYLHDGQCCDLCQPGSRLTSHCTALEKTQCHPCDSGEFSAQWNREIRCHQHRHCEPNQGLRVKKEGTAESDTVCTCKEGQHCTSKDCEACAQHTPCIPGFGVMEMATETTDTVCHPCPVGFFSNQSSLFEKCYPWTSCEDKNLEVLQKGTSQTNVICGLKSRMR

[2] = biological target: T2, dog CD40 (dog, UniProt Q7YRL5 21-194, limits assumed); assay: FACS
T2 sequence (looked up): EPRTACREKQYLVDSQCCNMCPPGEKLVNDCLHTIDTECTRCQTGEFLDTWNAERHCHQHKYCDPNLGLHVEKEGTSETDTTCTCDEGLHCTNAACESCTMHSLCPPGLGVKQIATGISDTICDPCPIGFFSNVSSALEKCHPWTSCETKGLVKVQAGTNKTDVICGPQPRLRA

[3] = biological target: T1, mouse CD40; assay: FACS
[4] = biological target: T3, human CD40 on cells (HEK293 stable transfectants, HEK-Blue CD40 cells, human B cells, monocytic cells, … (human, UniProt P25942 21-277)); assay: FACS, HEK293 transfectants
T3 construct: also called cell-surface CD40
T3 sequence (P25942 21-277 limits assumed): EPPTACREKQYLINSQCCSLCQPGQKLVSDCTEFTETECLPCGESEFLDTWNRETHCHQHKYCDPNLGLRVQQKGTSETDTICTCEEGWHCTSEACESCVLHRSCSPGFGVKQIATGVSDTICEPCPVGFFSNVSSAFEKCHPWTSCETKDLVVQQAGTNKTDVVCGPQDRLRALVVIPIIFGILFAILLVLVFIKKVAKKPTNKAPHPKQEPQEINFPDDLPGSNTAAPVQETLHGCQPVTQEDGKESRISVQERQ

[5] = biological target: T4, MSLN (binding assays of Example 4, Table 4-2) (Homo sapiens (Human), UniProt Q13421 296-598); assay: antigen binding, format not stated
T4 construct: also called mesothelin
T4 sequence (Q13421 other isoform, or with tags, fused parts or gaps limits assumed, form in doubt): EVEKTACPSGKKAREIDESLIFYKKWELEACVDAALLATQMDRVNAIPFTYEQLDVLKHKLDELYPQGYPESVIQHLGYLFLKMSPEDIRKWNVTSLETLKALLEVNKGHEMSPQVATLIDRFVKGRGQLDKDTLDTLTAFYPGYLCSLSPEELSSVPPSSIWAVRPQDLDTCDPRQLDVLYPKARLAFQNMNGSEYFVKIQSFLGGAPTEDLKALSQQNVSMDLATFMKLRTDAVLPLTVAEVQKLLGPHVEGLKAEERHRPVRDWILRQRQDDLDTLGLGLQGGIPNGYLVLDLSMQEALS

[6] = biological target: CD40 (binding assays of Example 4, Table 4-2); assay: antigen binding, format not stated
Chain of CD40 (binding assays of Example 4, Table 4-2) (P25942 21-277): as the sequence (P25942 21-277 limits assumed) above

[7] = biological target: T5, MSLN (Table 10-1); assay: MSLN binding, format not stated
T5 chain: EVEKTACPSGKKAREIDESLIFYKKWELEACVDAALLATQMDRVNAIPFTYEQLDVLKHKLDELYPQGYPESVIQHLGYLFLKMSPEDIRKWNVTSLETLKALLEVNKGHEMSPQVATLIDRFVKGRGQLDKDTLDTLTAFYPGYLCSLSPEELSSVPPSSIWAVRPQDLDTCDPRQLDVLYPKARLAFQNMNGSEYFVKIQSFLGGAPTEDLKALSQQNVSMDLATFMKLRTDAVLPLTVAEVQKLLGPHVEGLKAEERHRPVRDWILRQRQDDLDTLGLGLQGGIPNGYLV

[8] = biological target: T3, human CD40 on cells (HEK293 stable …); assay: CD40 occupancy on B cells, -MSLN (n = 3)
[9] = biological target: T3, human CD40 on cells (HEK293 stable …); assay: cell-based or functional assay
[10] = biological target: T6, soluble form of the extracellular domain of human CD40 (Creative BioMart) (human, UniProt P25942 21-193); assay: SPR
T6 construct: Bought
T6 sequence (P25942 21-193 limits assumed): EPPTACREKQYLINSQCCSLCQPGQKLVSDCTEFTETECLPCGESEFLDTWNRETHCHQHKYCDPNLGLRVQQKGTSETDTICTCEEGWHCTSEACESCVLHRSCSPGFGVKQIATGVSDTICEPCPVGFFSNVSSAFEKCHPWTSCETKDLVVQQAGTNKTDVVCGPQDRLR

[11] = biological target: T7, human mesothelin (human, UniProt Q13421 296-580, limits assumed); assay: SPR
T7 construct: also called Human MSLN

[12] = biological target: T8, soluble form of the extracellular domain of cynomolgus (cyno) CD40 (Creative BioMart) (cynomolgus, UniProt G7PG38 21-193); assay: SPR, fast kinetics
T8 construct: extracellular domain; also called Cynomolgus CD40

[13] = biological target: T8, soluble form of the extracellular …; assay: SPR
[14] = biological target: T9, cynomolgus mesothelin (cynomolgus); assay: SPR
T9 construct: also called cynoMSLN; Cyno MSLN

[15] = biological target: T6, soluble form of the extracellular …; assay: SPR; remark: listed apart in the source
[16] = biological target: T7, human mesothelin; assay: SPR; remark: listed apart in the source
[17] = biological target: T9, cynomolgus mesothelin; assay: SPR; remark: listed apart in the source
[18] = biological target: T3, human CD40 on cells (HEK293 stable …); assay: cell-based or functional assay; remark: listed apart in the source
[19] = biological target: T8, soluble form of the extracellular …; assay: SPR; remark: listed apart in the source

B3: B39 (bispecific antibody, IgG2)
chain: EVQLQESGPGLVKPSETLSLTCTVSGYSITSNYYWNWIRQPPGKGLEWMGYIRYDGSNNYNPSLKNRVTISRDTSKNQFSLKLSSVTAADTAVYYCARLDYWGQGTTVTVSSDLSGGGGSGGGGSGGGGSGGGGSTGDAVMTQTPLSLSVTPGQPASISCRSSQSLENTNGNTFLNWYLQKPGQSPQLLIYRVSNRFSGVPDRFSGSGSGTDFTLKISRVEAEDVGVYYCLQVTHVPFTFGQGTKLEIKRVERKSSVECPPCPAPPVAGPSVFLFPPKPKDTLMISRTPEVTCVVVDVSHEDPEVQFNWYVDGVEVHNAKTKPREEQFNSTFRVVSVLTVVHQDWLNGKEYKCKVSNKGLPAPIEKTISKTKGQPREPQVYTLPPSREEMTKNQVSLTCLVKGFYPSDIAVEWESNGQPENNYKTTPPMLDSDGSFFLYSKLTVDKSRWQQGNVFSCSVMHEALHNHYTQKSLSLSPGKVDGASSPVNVSSPSVQDIEVQLVQSGAEVKKPGASVKVSCKASGDTFKRYYVHWVRQAPGQGLEWMGIINPSGVSTTYAQKFQGRVTMTRDTSTSTVYMELSSLRSEDTAVYYCAEVRGSGFNYFGMDVWGQGTLVTVSSDLSGGGGSGGGGSGGGGSGGGGSTGSYELTQPPSVSVSPGQTASITCSGDKLGDKYASWYQQKPGQSPVLVIYQDNRRPSGIPERFSGSNSGNTATLTISGTQAMDEADYYCQAWDSDTYVFGTGTKVTVLGQ
notes: scFv-Fc-scFv, huIgG2
EC50 [5]: 7.4 µg/mL | EC50 [6]: 0.5 µg/mL

B4: LB-1 (bispecific antibody, mouse IgG1)
chain: EVQLVESGGGLVQPGRSLKLSCAASGFTFSNYDMAWVRQAPTKGLEWVASISPSGGRTYYRDSVKGRFTVSRDNAKSTLYLQMDSLRSEDTATYYCARHDGSYFDYWGQGVMVTVSSDLSGGGGSGGGGSGGGGSGGGGSTGDTVLTQSPALAVSPGERVTISCRASESVSTLMHWYQQKPGQQPKLLIYLASHLESGVPARFSGSGSGTDFTLTIDPVEADDTATYYCQESWNDPWTFGGGTKLELKRLEVPRDSGSKPCICTVPEVSSVFIFPPKPKDVLTITLTPKVTCVVVDISKDDPEVQFSWFVDDVEVHTAQTQPREEQFNSTFRSVSELPIMHQDWLNGKEFKCRVNSAAFPAPIEKTISKTKGRPKAPQVYTIPPPKEQMAKDKVSLTCMITDFFPEDITVEWQWNGQPAENYKNTQPIMDTDGSYFVYSKLNVQKSNWEAGNTFTCSVLHEGLHNHHTEKSLSHSPGKVDGASSPVNVSSPSVQDIQVQLVQSGAEVKKPGASVKVSCKASGYTFTGNYINWVRQAPGQGLEWMGIINPTKGWTLYAQKFQGRVTMTRDTSISTAYMELSSLRSEDTAVYYCARWHHGTWIFDYWGQGTLVTVSSDLSGGGGSGGGGSGGGGSGGGGSTGDIVLTQPPSVSGAPGQRVTISCSGSSSNIGSNYVSWYQQLPGTAPKLLIYNDNQRPSGVPDRFSGSKSGTSASLAITGLQSEDEADYYCSTYDRRTFSVFGGGTKLTVLG
notes: 1C10 scFv (VH→VL), murine IgG1 hinge-CH2-CH3, MOR06626 scFv (VH→VL); also called mouse bispecific formula (I) protein LB-1
EC50 [7]: 1.39 µg/mL | EC50 [1]: 2.75 µg/mL

B6: CF1 (bispecific antibody, human IgG1, lambda)
heavy: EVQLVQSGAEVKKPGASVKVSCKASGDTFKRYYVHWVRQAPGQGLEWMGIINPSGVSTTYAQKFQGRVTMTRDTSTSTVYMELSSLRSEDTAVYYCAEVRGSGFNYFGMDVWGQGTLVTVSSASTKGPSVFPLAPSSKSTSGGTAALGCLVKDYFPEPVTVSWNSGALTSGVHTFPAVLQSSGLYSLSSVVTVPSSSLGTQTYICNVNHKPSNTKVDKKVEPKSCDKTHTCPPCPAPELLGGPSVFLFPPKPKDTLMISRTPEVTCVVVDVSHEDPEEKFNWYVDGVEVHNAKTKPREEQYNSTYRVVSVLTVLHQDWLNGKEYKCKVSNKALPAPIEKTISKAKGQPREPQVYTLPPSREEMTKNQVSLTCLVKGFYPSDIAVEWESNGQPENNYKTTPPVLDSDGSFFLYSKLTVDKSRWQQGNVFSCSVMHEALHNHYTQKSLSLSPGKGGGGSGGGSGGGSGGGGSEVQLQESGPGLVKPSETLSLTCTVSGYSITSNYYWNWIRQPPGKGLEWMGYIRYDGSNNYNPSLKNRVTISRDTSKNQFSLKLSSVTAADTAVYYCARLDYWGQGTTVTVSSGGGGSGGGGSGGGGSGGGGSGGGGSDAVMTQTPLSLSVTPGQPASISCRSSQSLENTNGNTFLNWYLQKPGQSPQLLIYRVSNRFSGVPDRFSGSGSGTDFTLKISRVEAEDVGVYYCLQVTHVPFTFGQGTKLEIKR
light: SYELTQPPSVSVSPGQTASITCSGDKLGDKYASWYQQKPGQSPVLVIYQDNRRPSGIPERFSGSNSGNTATLTISGTQAMDEADYYCQAWDSDTYVFGTGTKVTVLGQPKAAPSVTLFPPSSEELQANKATLVCLISDFYPGAVTVAWKADSSPVKAGVETTTPSKQSNNKYAASSYLSLTPEQWKSHRSYSCQVTHEGSTVEKTVAPTECS
notes: IgG-scFv: HuAM15 Fab, IgG1 V273E, CD40 scFv
Kd [10]: 390 nM | koff [10]: 0.26 s⁻¹ | kon [10]: 680000 M⁻¹ s⁻¹ | Kd [11]: 0.47 nM | koff [11]: 2.4e-05 s⁻¹ | kon [11]: 52000 M⁻¹ s⁻¹ | Kd [12]: 150 nM | Kd [13]: < 150 nM | Kd [14]: ≤ 0.29 nM | Kd [15]: < 400 nM | Kd [16]: < 400 nM | Kd [17]: 0.23 nM | koff [17]: 7.1e-05 s⁻¹ | kon [17]: 310000 M⁻¹ s⁻¹ | Max. IL-12p70, dendritic cells with cell-surface mesothelin [18]: 100 pg/mL

B7: CF3 (bispecific antibody, human IgG1, lambda)
heavy: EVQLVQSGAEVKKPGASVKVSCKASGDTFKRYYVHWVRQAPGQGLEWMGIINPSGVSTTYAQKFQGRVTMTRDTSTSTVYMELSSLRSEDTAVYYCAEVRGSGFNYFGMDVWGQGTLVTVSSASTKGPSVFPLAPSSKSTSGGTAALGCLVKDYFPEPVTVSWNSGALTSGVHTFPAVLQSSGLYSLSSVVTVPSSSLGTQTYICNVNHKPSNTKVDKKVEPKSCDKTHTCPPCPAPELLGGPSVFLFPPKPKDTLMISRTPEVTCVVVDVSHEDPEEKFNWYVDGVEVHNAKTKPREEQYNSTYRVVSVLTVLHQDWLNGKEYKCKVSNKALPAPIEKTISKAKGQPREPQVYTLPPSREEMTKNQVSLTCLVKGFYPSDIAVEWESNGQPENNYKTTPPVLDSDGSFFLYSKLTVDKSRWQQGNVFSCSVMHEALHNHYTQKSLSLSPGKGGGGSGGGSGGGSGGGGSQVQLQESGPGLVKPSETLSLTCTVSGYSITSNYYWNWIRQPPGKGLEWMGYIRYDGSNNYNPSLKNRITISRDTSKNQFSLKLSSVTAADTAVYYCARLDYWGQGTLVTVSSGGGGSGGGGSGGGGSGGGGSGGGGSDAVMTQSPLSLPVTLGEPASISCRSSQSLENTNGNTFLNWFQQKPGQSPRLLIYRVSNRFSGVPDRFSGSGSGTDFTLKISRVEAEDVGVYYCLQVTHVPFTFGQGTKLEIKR
light: B6 light
notes: IgG-scFv
Kd [10]: 14 nM | koff [10]: 0.0096 s⁻¹ | kon [10]: 690000 M⁻¹ s⁻¹ | Kd [11]: 0.59 nM | koff [11]: 3.1e-05 s⁻¹ | kon [11]: 52000 M⁻¹ s⁻¹ | Kd [13]: < 150 nM | Kd [14]: ≤ 0.29 nM | Kd [15]: < 400 nM | Kd [16]: < 400 nM | Kd [19]: 8.3 nM | koff [19]: 0.011 s⁻¹ | kon [19]: 1.3e+06 M⁻¹ s⁻¹ | Kd [17]: 0.29 nM | koff [17]: 8.2e-05 s⁻¹ | kon [17]: 280000 M⁻¹ s⁻¹ | Max. IL-12p70, dendritic cells with cell-surface mesothelin [18]: 75 pg/mL

Further lines, results first:

EC50 [1]: 0.21 µg/mL
B1: anti-CD40 antibody (1C10 mIgG1) (antibody, V domains shown)
VH: EVQLVESGGGLVQPGRSLKLSCAASGFTFSNYDMAWVRQAPTKGLEWVASISPSGGRTYYRDSVKGRFTVSRDNAKSTLYLQMDSLRSEDTATYYCARHDGSYFDYWGQGVMVTVSS
VL: DTVLTQSPALAVSPGERVTISCRASESVSTLMHWYQQKPGQQPKLLIYLASHLESGVPARFSGSGSGTDFTLTIDPVEADDTATYYCQESWNDPWTFGGGTKLELK
notes: murine IgG1

binding result [2]: no binding | binding result [3]: no binding | binding result [4]: binds
B2: huAb8-2 (antibody, human IgG1, V domains shown)
VH: EVQLVQSGAEVKKPGSSVKVSCKASGYTFTDYYINWVRQAPGQGLEWIGWIFPGSGSVYSNEQFKGRATLTVDRSTSTAYMELSSLRSEDTAVYFCASSLGKFAYWGQGTLVTVSS
VL: DIQMTQSPSSLSASVGDRVTITCKASQSVVTAVAWYQQKPGKSPKLLIYSASNRYTGVPSRFSGSGSGTDFTLTISSLQPEDFATYFCQQYSSYPYTFGGGTKVEIK
notes: human IgG1, kappa

EC50 [8]: 4.1 nM | B-cell CD23 EC50, +MSLN [9]: 2.5 nM | B-cell CD23 EC50, -MSLN [9]: 1.4 nM | B-cell CD86 EC50, +MSLN [9]: 0.7 nM | B-cell CD86 EC50, -MSLN [9]: 0.35 nM | B-cell proliferation EC50, +MSLN [9]: 12 nM | B-cell proliferation EC50, -MSLN [9]: 4.5 nM | moDC CD83 EC50, +MSLN [9]: 6.9 nM | moDC CD83 EC50, -MSLN [9]: 2 nM | moDC IL-12p70 EC50, +MSLN [9]: 3.4 nM | moDC IL-12p70 EC50, -MSLN [9]: 12.4 nM
B5: huAb9 A2I (antibody, human IgG1, kappa)
heavy: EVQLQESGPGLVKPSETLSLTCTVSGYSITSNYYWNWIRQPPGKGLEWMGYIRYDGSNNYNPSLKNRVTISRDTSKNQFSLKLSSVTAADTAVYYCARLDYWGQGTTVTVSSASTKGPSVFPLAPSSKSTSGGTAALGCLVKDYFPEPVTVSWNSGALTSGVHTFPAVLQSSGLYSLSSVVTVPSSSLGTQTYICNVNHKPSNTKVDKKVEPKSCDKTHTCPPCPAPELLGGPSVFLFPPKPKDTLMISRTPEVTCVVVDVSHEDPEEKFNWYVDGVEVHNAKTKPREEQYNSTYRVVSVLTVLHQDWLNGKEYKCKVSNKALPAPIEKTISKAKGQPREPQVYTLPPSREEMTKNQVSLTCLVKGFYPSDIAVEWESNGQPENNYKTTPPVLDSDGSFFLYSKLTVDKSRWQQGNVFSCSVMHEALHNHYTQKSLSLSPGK
light: DIVMTQTPLSLSVTPGQPASISCRSSQSLENTNGNTFLNWYLQKPGQSPQLLIYRVSNRFSGVPDRFSGSGSGTDFTLKISRVEAEDVGVYYCLQVTHVPFTFGQGTKLEIKRTVAAPSVFIFPPSDEQLKSGTASVVCLLNNFYPREAKVQWKVDNALQSGNSQESVTEQDSKDSTYSLSSTLTLSKADYEKHKVYACEVTHQGLSSPVTKSFNRGEC
notes: human IgG1 V273E
